The target of this assay is T1, conserved N-terminus of yeast Asf1 (residues 2–155) (S. cerevisiae, UniProt P32447 2-155).
T1 construct: Asf1 (anti-silencing function 1), budding yeast, residues 2-155; Written as a molecule of its own for the pair; also called Asf1N; ScAsf1; source: E. coli, purified (Ni-chromatography, TEV cleavage, second Ni step, gel filtration); not shown: His6, N-terminal, cleaved; MBP, N-terminal, cleaved
The assay is described as follows: crystal structure; Asf1N fused to H3α3 by the linker AAGAATAA on one chain; hanging-drop vapor diffusion, 18°C, 85 mM Tris-HCl (pH 8.5), 120 mM Li2SO4, 25% PEG 4000, 15% glycerol; 2.2 Å. The conditions noted are these: both partners purified.

T1 sequence (P32447 2-155): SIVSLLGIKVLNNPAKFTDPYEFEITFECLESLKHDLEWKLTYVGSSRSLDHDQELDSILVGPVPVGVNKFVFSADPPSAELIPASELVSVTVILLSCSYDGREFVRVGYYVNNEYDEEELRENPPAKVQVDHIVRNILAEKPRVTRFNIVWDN

B1: C-terminal α3 helix of yeast histone H3 (residues 121–134) (domain or fragment, S. cerevisiae, UniProt P61830 122-135, looked up)
chain: KKDIKLARRLRGER
notes: histone H3, budding yeast, C-terminal alpha helix, amino acids 121-134; The final model holds H3 residues 121-131 only; also called H3α3; ScH3 121-134; source: E. coli, purified (Ni-chromatography, TEV cleavage, second Ni step, gel filtration), as a fusion behind Asf1N
Take B1: the binding result is “binds”.

The record behind these values is paper PMC1762009, “Structure of the yeast histone H3-ASF1 interaction: implications for chaperone mechanism, species-specific interactions, and epigenetics” (BMC Structural Biology, 2006).
